How the values were obtained:
Assay in all cases: Kd (EC50 corrected by depletion factor)
ISY1 = molecular target: T1, ISY1 (UniProt Q9ULR0)
T1 sequence: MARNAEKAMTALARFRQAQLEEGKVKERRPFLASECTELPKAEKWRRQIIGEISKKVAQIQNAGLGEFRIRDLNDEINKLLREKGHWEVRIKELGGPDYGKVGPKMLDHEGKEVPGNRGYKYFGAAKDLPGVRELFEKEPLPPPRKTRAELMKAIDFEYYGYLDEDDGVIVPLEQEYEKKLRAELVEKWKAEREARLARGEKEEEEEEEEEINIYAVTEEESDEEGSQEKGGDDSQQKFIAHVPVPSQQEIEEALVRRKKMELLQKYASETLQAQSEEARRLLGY
How it was run: (§1)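 Free RNA oligos (0 nM to 30 μM) competed for 1 h at 4°C in HEK293-FT lysate (2.5 mg protein/well) before a 30 min, 4°C pulldown with the same oligos on NHS-Sepharose beads. Bound proteins were quantified by label-free LC-MS/MS and normalised to the control. Kd was found by multiplying EC50, from a four-parameter log-logistic fit, by a protein-dependent depletion factor.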

LRPPRC = LRPPRC (UniProt P42704)
How it was run: as §1

LSM7 = molecular target: T2, LSM7 (UniProt Q9UK45)
T2 sequence: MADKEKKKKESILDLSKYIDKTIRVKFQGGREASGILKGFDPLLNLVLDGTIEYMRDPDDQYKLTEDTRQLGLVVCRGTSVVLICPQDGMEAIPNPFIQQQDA
How it was run: as §1

MEX3B = molecular target: T3, MEX3B (UniProt Q6ZN04)
T3 sequence: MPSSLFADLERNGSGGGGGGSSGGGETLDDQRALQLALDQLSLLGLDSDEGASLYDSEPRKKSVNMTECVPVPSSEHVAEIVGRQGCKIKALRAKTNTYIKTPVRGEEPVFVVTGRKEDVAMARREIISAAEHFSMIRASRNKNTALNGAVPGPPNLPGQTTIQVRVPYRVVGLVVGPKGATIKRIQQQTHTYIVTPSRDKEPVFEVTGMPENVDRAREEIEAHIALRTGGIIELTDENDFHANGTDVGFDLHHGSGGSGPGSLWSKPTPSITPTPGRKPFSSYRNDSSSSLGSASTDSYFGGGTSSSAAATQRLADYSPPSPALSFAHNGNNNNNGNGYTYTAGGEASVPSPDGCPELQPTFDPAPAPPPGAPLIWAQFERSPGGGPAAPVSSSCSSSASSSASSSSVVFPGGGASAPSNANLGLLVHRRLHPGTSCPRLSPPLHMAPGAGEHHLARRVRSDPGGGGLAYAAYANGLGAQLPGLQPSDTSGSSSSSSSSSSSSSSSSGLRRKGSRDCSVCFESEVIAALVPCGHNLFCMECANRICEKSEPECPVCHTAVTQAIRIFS
How it was run: as §1

MSI1 = MSI1 (UniProt O43347)
How it was run: as §1

PABPC4 = PABPC4 (UniProt Q13310)
How it was run: as §1

RBMS1 = molecular target: T4, RBMS1 (UniProt P29558)
T4 sequence: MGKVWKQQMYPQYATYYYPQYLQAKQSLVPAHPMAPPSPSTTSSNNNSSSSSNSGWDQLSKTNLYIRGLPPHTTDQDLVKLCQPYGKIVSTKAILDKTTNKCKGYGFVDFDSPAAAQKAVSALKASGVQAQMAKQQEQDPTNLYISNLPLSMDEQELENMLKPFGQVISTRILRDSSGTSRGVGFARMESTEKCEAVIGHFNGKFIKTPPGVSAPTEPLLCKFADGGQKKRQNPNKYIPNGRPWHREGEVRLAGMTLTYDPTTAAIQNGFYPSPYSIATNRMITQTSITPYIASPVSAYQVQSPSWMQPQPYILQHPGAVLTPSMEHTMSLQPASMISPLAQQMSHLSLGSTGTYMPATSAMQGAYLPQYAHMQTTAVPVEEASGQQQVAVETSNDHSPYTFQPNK
How it was run: as §1

RBMS3 = molecular target: T5, RBMS3 (UniProt Q6XE24)
T5 sequence: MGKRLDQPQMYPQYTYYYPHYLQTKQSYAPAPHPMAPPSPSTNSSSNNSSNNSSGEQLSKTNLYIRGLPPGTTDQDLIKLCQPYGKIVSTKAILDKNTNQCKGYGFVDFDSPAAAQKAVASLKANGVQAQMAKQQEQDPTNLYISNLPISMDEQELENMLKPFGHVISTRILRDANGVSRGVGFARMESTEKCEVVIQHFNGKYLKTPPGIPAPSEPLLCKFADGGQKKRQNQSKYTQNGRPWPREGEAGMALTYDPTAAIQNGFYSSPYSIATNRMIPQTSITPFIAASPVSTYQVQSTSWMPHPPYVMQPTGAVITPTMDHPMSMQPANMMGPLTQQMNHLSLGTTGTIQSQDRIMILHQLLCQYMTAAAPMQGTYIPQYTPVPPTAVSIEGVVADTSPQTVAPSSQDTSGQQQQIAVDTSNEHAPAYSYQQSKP
How it was run: as §1

ZCCHC24 = ZCCHC24 (UniProt Q8N2G6)
How it was run: as §1

Sequence of MSI1 (O43347 whole entry): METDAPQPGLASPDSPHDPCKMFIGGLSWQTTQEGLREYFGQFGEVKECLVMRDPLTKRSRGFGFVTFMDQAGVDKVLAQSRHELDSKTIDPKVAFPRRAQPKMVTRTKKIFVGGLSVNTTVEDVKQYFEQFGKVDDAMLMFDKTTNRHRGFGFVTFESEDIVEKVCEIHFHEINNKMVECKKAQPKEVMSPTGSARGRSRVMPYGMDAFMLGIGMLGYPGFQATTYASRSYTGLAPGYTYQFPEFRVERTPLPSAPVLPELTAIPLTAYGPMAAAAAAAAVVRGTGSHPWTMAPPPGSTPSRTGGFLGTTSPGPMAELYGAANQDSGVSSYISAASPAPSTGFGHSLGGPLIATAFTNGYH
Sequence of PABPC4 (Q13310 whole entry): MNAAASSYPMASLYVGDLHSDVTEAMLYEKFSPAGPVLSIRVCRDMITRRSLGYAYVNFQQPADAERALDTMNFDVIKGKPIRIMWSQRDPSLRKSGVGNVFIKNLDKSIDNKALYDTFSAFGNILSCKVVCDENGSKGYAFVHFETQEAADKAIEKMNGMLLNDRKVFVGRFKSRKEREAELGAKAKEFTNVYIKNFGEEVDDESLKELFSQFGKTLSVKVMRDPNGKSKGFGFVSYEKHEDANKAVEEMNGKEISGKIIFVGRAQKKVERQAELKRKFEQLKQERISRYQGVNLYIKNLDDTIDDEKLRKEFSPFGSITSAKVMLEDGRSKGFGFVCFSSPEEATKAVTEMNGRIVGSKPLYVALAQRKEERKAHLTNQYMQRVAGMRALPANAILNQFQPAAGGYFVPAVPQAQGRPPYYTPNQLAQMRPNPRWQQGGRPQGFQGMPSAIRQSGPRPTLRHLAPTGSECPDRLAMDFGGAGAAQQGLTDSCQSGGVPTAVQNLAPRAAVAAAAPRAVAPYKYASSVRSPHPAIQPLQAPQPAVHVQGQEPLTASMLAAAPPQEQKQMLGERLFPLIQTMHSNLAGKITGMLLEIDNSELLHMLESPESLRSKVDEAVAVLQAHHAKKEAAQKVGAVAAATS
Sequence of ZCCHC24 (Q8N2G6 whole entry): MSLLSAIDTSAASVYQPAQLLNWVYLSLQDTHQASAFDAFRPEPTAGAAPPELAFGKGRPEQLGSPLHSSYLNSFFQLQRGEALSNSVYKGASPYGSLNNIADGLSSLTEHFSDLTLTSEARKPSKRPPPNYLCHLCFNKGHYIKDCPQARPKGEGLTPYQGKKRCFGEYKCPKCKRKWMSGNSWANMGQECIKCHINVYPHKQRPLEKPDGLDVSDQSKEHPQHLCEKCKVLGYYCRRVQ

## AAUAAA
ISY1
  Kd: 198 nM
LRPPRC
  Kd: 1130 nM
LSM7
  Kd: 142 nM
MEX3B
  Kd: 327 nM
MSI1
  Kd: 3110 nM
PABPC4
  Kd: 1.53 µM
RBMS1
  Kd: 156 nM
RBMS3
  Kd: 153 nM
ZCCHC24
  Kd: 207 nM

## CUGUCCU
LRPPRC
  Kd: 1260 nM

## UAUUUAU
ISY1
  Kd: 414 nM
LSM7
  Kd: 270 nM
MEX3B
  Kd: 220 nM
MSI1
  Kd: 373 nM
PABPC4
  Kd: 7.84 µM
RBMS1
  Kd: 114 nM
RBMS3
  Kd: 97.3 nM
ZCCHC24
  Kd: 1910 nM
